According to publication PMC4447588:

Legend:
[1] = system: NC(=O)C1=CN([C@@H]2O[C@H](COP(=O)(O)OP(=O)(O)OC[C@H]3O[C@@H](n4cnc5c(N)ncnc54)[C@H](OP(=O)(O)O)[C@@H]3O)[C@@H](O)[C@H]2O)C=CC1; assay: purified protein; conditions: FMN, pH 7.0, 37 °C
[2] = system: Cc1cc2nc3c(=O)[nH]c(=O)nc-3n(C[C@H](O)[C@H](O)[C@H](O)COP(=O)(O)O)c2cc1C; assay: purified protein; conditions: NADPH, pH 7.0, 37 °C, varied: cofactor

## PpArsH (Pseudomonas putida KT2440)
[1]
  Km: 74 µM
[2]
  K0.5: 7.8 µM
